Measurements published in patent US20220017622A1 (Pfizer, published 2022).
Positions count from the first letter of the chain named.

Columns and labels:
[1] = target: T1, cyno B7-H4 extracellular domain (cyno, UniProt Q7Z7D3 29-258 (human entry)); experiment: SPR 37 C; bispecific on anti-hFc chip, ECD analyte
T1 construct: Soluble ECD used as SPR analyte; also called cyB7-H4 ECD; cyB7-H4
T1 sequence: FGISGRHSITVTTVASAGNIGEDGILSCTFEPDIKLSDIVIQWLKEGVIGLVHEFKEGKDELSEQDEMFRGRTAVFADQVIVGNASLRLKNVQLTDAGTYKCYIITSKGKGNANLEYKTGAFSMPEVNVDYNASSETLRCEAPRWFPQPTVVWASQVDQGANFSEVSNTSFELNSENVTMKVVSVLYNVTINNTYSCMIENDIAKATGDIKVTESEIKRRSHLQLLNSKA

[2] = target: T2, human B7-H4 extracellular domain (human, UniProt Q7Z7D3 29-258); experiment: SPR 37 C; bispecific on anti-hFc chip, ECD analyte
T2 construct: Soluble ECD used as SPR analyte; also called huB7-H4 ECD; huB7-H4
T2 sequence: T1 sequence with I49L

[3] = target: T3, human CD3 (delta/epsilon heterodimer) (human, UniProt P07766 23-126; P04234 22-105); experiment: SPR 37 C; CD3 delta/epsilon on anti-His chip, bispecific analyte; CD3 variant 2B5v6
T3 construct: captured on an anti-His chip, so it carries a His tag; also called huCD3
T3 sequence (P07766 23-126, stated change not applied, chain 1 of 2): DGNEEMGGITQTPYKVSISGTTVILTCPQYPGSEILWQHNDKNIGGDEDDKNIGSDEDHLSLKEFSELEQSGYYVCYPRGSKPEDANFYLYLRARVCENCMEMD
T3 sequence (P04234 22-105, stated change not applied, chain 2 of 2): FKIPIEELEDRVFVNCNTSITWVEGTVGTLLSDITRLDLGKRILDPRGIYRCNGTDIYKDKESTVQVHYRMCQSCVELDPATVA

[4] = target: T4, cyno CD3 (delta/epsilon heterodimer) (cyno, UniProt Q95LI5 22-117; Q95LI8 22-105); experiment: SPR 25 C; CD3 delta/epsilon on anti-His chip, bispecific analyte
T4 construct: also called cyCD3
T4 sequence (Q95LI5 22-117, stated change not applied, chain 1 of 2): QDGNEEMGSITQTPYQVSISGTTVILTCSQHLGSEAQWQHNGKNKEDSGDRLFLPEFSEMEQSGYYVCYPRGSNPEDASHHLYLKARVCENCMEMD
T4 sequence (Q95LI8 22-105, stated change not applied, chain 2 of 2): as the sequence (P04234 22-105, stated change not applied, chain 2 of 2) above, with I5V, N15K, I20V, S32T, D33N, I34N, T64A, S74N, V83L counted along it

[5] = target: T3, human CD3 (delta/epsilon heterodimer); experiment: as above
[6] = target: T1, cyno B7-H4 extracellular domain; experiment: SPR 37 C; bispecific on anti-hFc chip, ECD analyte; remark: listed apart in the source
[7] = target: T2, human B7-H4 extracellular domain; experiment: SPR 37 C; bispecific on anti-hFc chip, ECD analyte; remark: listed apart in the source
[8] = target: T5, rat B7-H4 extracellular domain (rat, UniProt Q501W4 29-257); experiment: SPR 37 C; bispecific on anti-hFc chip, ECD analyte
T5 construct: Soluble ECD used as SPR analyte; also called ratB7-H4 ECD
T5 sequence: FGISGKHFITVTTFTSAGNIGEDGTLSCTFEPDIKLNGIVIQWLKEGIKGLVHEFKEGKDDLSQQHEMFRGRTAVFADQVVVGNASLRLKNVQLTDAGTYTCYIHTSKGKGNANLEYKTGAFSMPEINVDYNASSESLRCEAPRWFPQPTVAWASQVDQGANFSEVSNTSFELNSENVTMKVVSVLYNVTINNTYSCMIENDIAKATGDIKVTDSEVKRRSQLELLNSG

[9] = target: T6, mouse B7-H4 extracellular domain (mouse, UniProt Q7TSP5 29-258); experiment: SPR 37 C; bispecific on anti-hFc chip, ECD analyte
T6 construct: Soluble ECD used as SPR analyte; also called muB7-H4 ECD; muB7-H4
T6 sequence: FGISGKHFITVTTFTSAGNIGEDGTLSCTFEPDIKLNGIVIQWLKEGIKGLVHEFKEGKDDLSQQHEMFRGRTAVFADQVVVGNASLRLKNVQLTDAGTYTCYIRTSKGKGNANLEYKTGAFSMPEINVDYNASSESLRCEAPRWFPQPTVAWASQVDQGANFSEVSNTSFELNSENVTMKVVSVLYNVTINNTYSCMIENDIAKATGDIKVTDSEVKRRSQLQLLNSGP

human B7-H4 on cells = target: T7, human B7-H4 on cells (human, UniProt Q7Z7D3 25-282); experiment: cell-based or functional assay
T7 sequence (looked up): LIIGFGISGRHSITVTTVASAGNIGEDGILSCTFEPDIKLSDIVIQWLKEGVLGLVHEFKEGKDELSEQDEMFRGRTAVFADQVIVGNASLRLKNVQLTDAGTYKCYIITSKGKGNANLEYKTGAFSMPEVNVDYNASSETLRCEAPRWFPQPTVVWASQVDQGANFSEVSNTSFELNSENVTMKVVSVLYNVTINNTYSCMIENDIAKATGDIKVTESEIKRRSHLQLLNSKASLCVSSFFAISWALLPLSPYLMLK

[10] = target: T4, cyno CD3 (delta/epsilon heterodimer); experiment: SPR 37 C; CD3 delta/epsilon on anti-His chip, bispecific analyte
[11] = target: T3, human CD3 (delta/epsilon heterodimer); experiment: as above
[12] = target: T1, cyno B7-H4 extracellular domain; experiment: SPR 25 C; bispecific on anti-hFc chip, ECD analyte
[13] = target: T2, human B7-H4 extracellular domain; experiment: SPR 25 C; bispecific on anti-hFc chip, ECD analyte
[14] = target: T6, mouse B7-H4 extracellular domain; experiment: SPR 25 C; bispecific on anti-hFc chip, ECD analyte
[15] = target: T2, human B7-H4 extracellular domain; experiment: SPR 37 C; bispecific (IgG2 scaffold) on anti-hFc chip, ECD analyte
[16] = target: T3, human CD3 (delta/epsilon heterodimer); experiment: SPR 37 C; CD3 delta/epsilon on anti-His chip, bispecific (IgG2 scaffold) analyte
[17] = target: T3, human CD3 (delta/epsilon heterodimer); experiment: SPR 37 C; CD3 delta/epsilon on anti-His chip, bispecific analyte; CD3 variant 2B5v598
[18] = target: T3, human CD3 (delta/epsilon heterodimer); experiment: SPR 37 C; CD3 delta/epsilon on anti-His chip, bispecific analyte; CD3 variant 2B5c707

B1: B7-H4xCD3 bispecific antibody 0074 (bispecific antibody, IgG2)
heavy 1: QVQLQQWGAGLLKPSETLSLTCAVYGGSFSGYYWNWIRQPPGKGLEWIGEINHSGSTKYNPSLKSRVTISGDTSKNQFSLKLNSVTAADTAVYYCVRGLYNWNVDSWGQGTLVTVSSASTKGPSVFPLAPCSRSTSESTAALGCLVKDYFPEPVTVSWNSGALTSGVHTFPAVLQSSGLYSLSSVVTVPSSNFGTQTYTCNVDHKPSNTKVDKTVERKCEVECPECPAPPVAGPSVFLFPPKPKDTLMISRTPEVTCVVVAVSHEDPEVQFNWYVDGVEVHNAKTKPREEQFNSTFRVVSVLTVVHQDWLNGKEYKCKVSNKGLPSSIEKTISKTKGQPREPQVYTLPPSREEMTKNQVSLTCEVKGFYPSDIAVEWESNGQPENNYKTTPPMLDSDGSFFLYSKLTVDKSRWQQGNVFSCSVMHEALHNHYTQKSLSLSPGK
light 1: DIQMTQSPSSLSASVGDRVTITCRASQGIRNDLGWYQQKPGKAPKRLIYVASSLQSGVPSRFSGSGSGTEFTLTISSLQPEDFATYYCLQHNSYPYTFGQGTKLEIKRTVAAPSVFIFPPSDEQLKSGTASVVCLLNNFYPREAKVQWKVDNALQSGNSQESVTEQDSKDSTYSLSSTLTLSKADYEKHKVYACEVTHQGLSSPVTKSFNRGEC
heavy 2: EVQLVESGGGLVQPGGSLRLSCAASGFTFSDYYMTWVRQAPGKGLEWVAFIRNQARGYTSDHNPSVKGRFTISRDNAKNSLYLQMNSLRAEDTAVYYCARDRPSYYVLDYWGQGTTVTVSSASTKGPSVFPLAPCSRSTSESTAALGCLVKDYFPEPVTVSWNSGALTSGVHTFPAVLQSSGLYSLSSVVTVPSSNFGTQTYTCNVDHKPSNTKVDKTVERKCRVRCPRCPAPPVAGPSVFLFPPKPKDTLMISRTPEVTCVVVAVSHEDPEVQFNWYVDGVEVHNAKTKPREEQFNSTFRVVSVLTVVHQDWLNGKEYKCKVSNKGLPSSIEKTISKTKGQPREPQVYTLPPSREEMTKNQVSLTCLVKGFYPSDIAVEWESNGQPENNYKTTPPMLDSDGSFFLYSRLTVDKSRWQQGNVFSCSVMHEALHNHYTQKSLSLSPGK
light 2: DIQMTQSPSSLSASVGDRVTITCTSSQSLFNVRSQKNYLAWYQQKPGKAPKLLIYWASTRESGVPSRFSGSGSGTDFTLTISSLQPEDFATYYCKQSYDLFTFGGGTKVEIKRTVAAPSVFIFPPSDEQLKSGTASVVCLLNNFYPREAKVQWKVDNALQSGNSQESVTEQDSKDSTYSLSSTLTLSKADYEKHKVYACEVTHQGLSSPVTKSFNRGEC
notes: Chains 1-2: B7-H4 arm; chains 3-4: CD3 arm; IgG2 EEE/RRR; also called anti-B7-H4 clone 28D10; CD3 variant 2B5v6
For B1, the Kd [1] was 30.9 nM, the koff [1] was 0.00581 s⁻¹ and the kon [1] was 188000 M⁻¹ s⁻¹. It also gave a Kd [2] of 21.9 nM, a koff [2] of 0.00602 s⁻¹ and a kon [2] of 275000 M⁻¹ s⁻¹. For the same binder, the Kd [3] was 56.9 nM, the koff [3] was 0.0336 s⁻¹ and the kon [3] was 592000 M⁻¹ s⁻¹. For the same binder, the Kd [4] was 8.33 nM, the koff [4] was 0.00534 s⁻¹ and the kon [4] was 642000 M⁻¹ s⁻¹. For the same binder, the Kd [5] was 7.38 nM, the koff [5] was 0.00559 s⁻¹ and the kon [5] was 758000 M⁻¹ s⁻¹. For the same binder, the Kd [6] was 8.81 nM, the koff [6] was 0.00487 s⁻¹ and the kon [6] was 553000 M⁻¹ s⁻¹. It also gave a Kd [7] of 8.86 nM, a koff [7] of 0.00509 s⁻¹ and a kon [7] of 575000 M⁻¹ s⁻¹. It also gave a Kd [8] of 1120 nM, a koff [8] of 0.131 s⁻¹ and a kon [8] of 117000 M⁻¹ s⁻¹. It also gave a Kd [9] of 776 nM, a koff [9] of 0.134 s⁻¹ and a kon [9] of 173000 M⁻¹ s⁻¹. The “T cell mediated tumor cell killing EC50, HCC1954-Luc” value (human B7-H4 on cells) was 73 nM, the “T cell mediated tumor cell killing, MDA-MB-468” value (human B7-H4 on cells) was 42 and the “T cell mediated tumor cell killing, OVCAR3-Luc” value (human B7-H4 on cells) was 31. For the same binder, the “T cell mediated tumor cell killing, T47D” value (human B7-H4 on cells) was 224, the Kd [10] was 47.1 nM and the koff [10] was 0.0239 s⁻¹. For the same binder, the kon [10] was 507000 M⁻¹ s⁻¹, the Kd [11] was 41.9 nM and the koff [11] was 0.0234 s⁻¹. For the same binder, the kon [11] was 558000 M⁻¹ s⁻¹, the Kd [12] was 9.29 nM and the koff [12] was 0.0012 s⁻¹. The kon [12] was 129000 M⁻¹ s⁻¹, the Kd [13] was 6.83 nM and the koff [13] was 0.0012 s⁻¹. It also gave a kon [13] of 176000 M⁻¹ s⁻¹, a Kd [14] of 299 nM and a koff [14] of 0.0299 s⁻¹. It also gave a kon [14] of 100000 M⁻¹ s⁻¹, a Kd [15] of 18.2 nM and a koff [15] of 0.00582 s⁻¹. For the same binder, the kon [15] was 319000 M⁻¹ s⁻¹, the Kd [16] was 56.9 nM and the koff [16] was 0.0336 s⁻¹. It also gave a kon [16] of 592000 M⁻¹ s⁻¹.

B2: B7-H4xCD3 bispecific antibody 0087 (bispecific antibody, IgG2)
heavy 1: QVQLQQWGAGLLKPSETLSLTCAVYGGSFSGYYWNWIRQPPGKGLEWIGEINHSGSTKYNPSLKSRVTISGDTSKNQFSLKLNSVTAADTAVYYCVRGLYNWNVDSWGQGTLVTVSSASTKGPSVFPLAPCSRSTSESTAALGCLVKDYFPEPVTVSWNSGALTSGVHTFPAVLQSSGLYSLSSVVTVPSSNFGTQTYTCNVDHKPSNTKVDKTVERKCEVECPECPAPPVAGPSVFLFPPKPKDTLMISRTPEVTCVVVAVSHEDPEVQFNWYVDGVEVHNAKTKPREEQFNSTFRVVSVLTVVHQDWLNGKEYKCKVSNKGLPSSIEKTISKTKGQPREPQVYTLPPSREEMTKNQVSLTCEVKGFYPSDIAVEWESNGQPENNYKTTPPMLDSDGSFFLYSKLTVDKSRWQQGNVFSCSVMHEALHNHYTQKSLSLSPG
light 1: B1 light 1
heavy 2: EVQLVESGGGLVQPGGSLRLSCAASGFTFSDYYMTWVRQAPGKGLEWVAFIRNQDRGYTSDHQPSVKGRFTISRDNAKNSLYLQMNSLRAEDTAVYYCARDRPSYYVLDYWGQGTTVTVSSASTKGPSVFPLAPCSRSTSESTAALGCLVKDYFPEPVTVSWNSGALTSGVHTFPAVLQSSGLYSLSSVVTVPSSNFGTQTYTCNVDHKPSNTKVDKTVERKCRVRCPRCPAPPVAGPSVFLFPPKPKDTLMISRTPEVTCVVVAVSHEDPEVQFNWYVDGVEVHNAKTKPREEQFNSTFRVVSVLTVVHQDWLNGKEYKCKVSNKGLPSSIEKTISKTKGQPREPQVYTLPPSREEMTKNQVSLTCLVKGFYPSDIAVEWESNGQPENNYKTTPPMLDSDGSFFLYSRLTVDKSRWQQGNVFSCSVMHEALHNHYTQKSLSLSPG
light 2: B1 light 2 with S26D, Q35G, T59D
notes: Chains 1-2: B7-H4 arm; chains 3-4: CD3 arm; IgG2; also called CD3 variant 2B5v598
In the case of B2, the “T cell mediated tumor cell killing EC50, HCC1954-Luc” value (human B7-H4 on cells) is reported as 57 nM, the “T cell mediated tumor cell killing, MDA-MB-468” value (human B7-H4 on cells) is reported as 109 and the Kd [17] is reported as 124 nM. For the same binder, the koff [17] was 0.0254 s⁻¹ and the kon [17] was 205000 M⁻¹ s⁻¹.

B3: B7-H4xCD3 bispecific antibody 0088 (bispecific antibody, IgG2)
heavy 1: B2 heavy 1
light 1: B1 light 1
heavy 2: B2 heavy 2 with D55A, Q63N, P103H
light 2: B1 light 2 with D99Y
notes: Chains 1-2: B7-H4 arm; chains 3-4: CD3 arm; IgG2; also called CD3 variant 2B5c707
Binder B3 has a Kd [18] of 134 nM, a koff [18] of 0.0689 s⁻¹ and a kon [18] of 511000 M⁻¹ s⁻¹. For the same binder, the “T cell mediated tumor cell killing EC50, HCC1954-Luc” value (human B7-H4 on cells) was 140 nM and the “T cell mediated tumor cell killing, MDA-MB-468” value (human B7-H4 on cells) was 655.
